{"source": "patent US20130331738A1", "about": "“COMPOSITIONS AND METHODS FOR POTENTIATING SONOTHROMBOLYSIS” (Board of Trustees University of Arkansas, priority 2012, published 2013)", "molecules": {"B1": {"name": "tPA: tissue plasminogen activator (protein, UniProt P00750 36-562, looked up)", "Tissue-type plasminogen …": "SYQVICRDEKTQMIYQQHQSWLRPVLRSNRVEYCWCNSGRAQCHSVPVKSCSEPRCFNGGTCQQALYFSDFVCQCPEGFAGKCCEIDTRATCYEDQGISYRGTWSTAESGAECTNWNSSALAQKPYSGRRPDAIRLGLGNHNYCRNPDRDSKPWCYVFKAGKYSSEFCSTPACSEGNSDCYFGNGSAYRGTHSLTESGASCLPWNSMILIGKVYTAQNPSAQALGLGKHNYCRNPDGDAKPWCHVLKNRRLTWEYCDVPSCSTCGLRQYSQPQFRIKGGLFADIASHPWQAAIFAKHRRSPGERFLCGGILISSCWILSAAHCFQERFPPHHLTVILGRTYRVVPGEEEQKFEVEKYIVHKEFDDDTYDNDIALLQLKSDSSRCAQESSVVRTVCLPPADLQLPDWTECELSGYGKHEALSPFYSERLKEAHVRLYPSSRCTSQHLLNRTVTDNMLCAGDTRSGGPQANLHDACQGDSGGPLVCLNDGRMTLVGIISWGLGCGQKDVPGVYTKVTNYLDWIRDNMRP"}}, "tested_on": "rigid clots (pooled rabbit plasma, fresh rabbit blood cells, thrombin)", "test": "Sonothrombolysis of aged and rigid clots, 1 MHz pulsed ultrasound in a Mylar flow chamber", "details": "0.1 mg/mL of tPA and/or MBs at about 0.5-2.5×10^8 MB/mL", "protocol": "To assess the effect of CPDL and/or degradable starch nanoparticles on the efficacy of sonothrombolysis, the following experiment was conducted. Rigid clots were formed by mixing pooled rabbit plasma with fresh rabbit blood cells and 30 U/mL of thrombin. The clots were incubated at 37° C. in glass tubes for 24 h followed by curing at 5° C. for 24 h. The total clot volumes and mass densities of each main clot were measured, and then 9-11 mg pieces were cut from the main clot. Each clot piece was weighed and then insonated with 1 MHz, pulsed ultrasound in a Mylar flow chamber through which fresh rabbit serum containing tPA and/or microbubbles (MBs) were introduced continuously. Sonothrombolysis efficacy was quantified as the % of clot mass lysed in 15 min. A stable nanoemulsion of CPDL at a concentration ranging from about 0.003-0.06% w/V, and/or 50-200 nm degradable starch nanoparticles were added to the system to enhance sonothrombolysis efficacy."}
{"molecule": "B1", "values": [{"measurement": "efficacy of sonothrombolysis for more rigid and aged clots", "value": "reduced markedly"}]}
